Experiment: soluble fraction after stress (log2 fold change); higher = more stays soluble; pooled small domains, quantitative proteomics
Details: stress: 50 degC
Summary of the method: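 Pooled custom libraries of small protein domains were each held under stress at 50°C. The read-out, high-throughput quantitative proteomics, tracked how much of each protein stayed soluble. This is reported as a base-two log fold change used to indicate aggregation propensity. Higher values mean more protein remains in solution.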
In the case of “HMRILDFPALKTEFDQLTKDLMAKYPEDGADRVRAIIETVLGPGKKVGALQPHQAELLAEVNTSLKANL”, the “soluble fraction (log2)” value is reported as 0.153. In the case of “HMVTTTEAAKMLLVNAGHDVIKDGLTGASWASNTMKLADADGLLASVATKPNDALPRQYAAQMIYN”, the “soluble fraction (log2)” value is reported as 0.076. With “HMQIMVVDEADRMLDMGFIPDIERIFQLTPFTRQTLFFSATMAPEIERITDTFLHSPERIEVAR” the “soluble fraction (log2)” value was -0.288. In the case of “HMTRQEFIRKLQEALNGKLDAATIQDHLKFYDDYIIEEMRKGKSEQEVLELLGDPWAIAKTIVDAS”, the “soluble fraction (log2)” value is reported as 0.349. For “HMVDYYEILGVSPDASRKDIENAWRKKMREAHPDMGGSEDKAQLLNEAHKVLSDESARAEYDASR”, the “soluble fraction (log2)” value was 0.103. In the case of “HMRIAGIDIPDNKRGEVALTYIFGIGRSSSKKILKSAGIDSDKQIGKWTDDESNLVRKLIRDEYTIEGDL”, the “soluble fraction (log2)” value is reported as -0.412. For “HMNYSIVNVGFNNKSLFLRSAPGYSASRLLLPFATERAFVRETLSNGWSRVIVRGTEGYLPTEYVAD”, the “soluble fraction (log2)” value was 0.179. In the case of “HMGNIALAIARFREMIAEDPNLQPVRLHLAMALMADHQDEAARGQLEKLRSDQLPDDIRKIVDDALAALR”, the “soluble fraction (log2)” value is reported as -1.13. In the case of “HMFAATGVVNAPSGLVLRETASKGGNPLATVPDKAQVEIVEEDGEWYKVKVNEQTGYLFAEFVNKTE”, the “soluble fraction (log2)” value is reported as 0.0336. For “HMSSSYTEMQLERFKELLNKETLLSSEKNELKNLISDFDKISEIVSPLVVGAYLQLKNEHIETINSLG”, the “soluble fraction (log2)” value was -0.192. For “HMIDVNLVQRGKTLHLRRRVPMRYSSVERREYVSISLKTDSEAEARRKAGAAWDQMIAAWEARLA”, the “soluble fraction (log2)” value was -0.35. For “HMTNVNSLIGKKAIVIQDIDNLKSTGQVKIGGEIWSAQSESNDIISKDTEVEIVKIDGVKLIVRLVPV”, the “soluble fraction (log2)” value was 0.1. For “HMDGRIRFRHAALHDPDVAARLHDYLTTSLPGVRSARVNSQTGSLLLEYDPEVLDRSTLLDLAARAESLL”, the “soluble fraction (log2)” value was -0.219. For “HMLKLTDRQKVILSILMSDGEKTASWIASQLGVGLRSVQLDLSYLRNNGFIKKASKSTHSAWIVLKK”, the “soluble fraction (log2)” value was -2.5. In the case of “HMSDDIPVHYRLDVNDAARALKLLTDNGFSAETAESGLNVYMTRLQSAEAARLLVENNIAVYGLTAV”, the “soluble fraction (log2)” value is reported as 0.0267. In the case of “HMNPETIHNDYKAFIKFAFSGLSYYSKVWNQNREMITPGLLETLWQKYRHLSIGEIETILEKIIKEG”, the “soluble fraction (log2)” value is reported as -1.88. In the case of “HMPFDWSAFDWKGWADEALAIIKTANQDQMNKWTEDNEKIIVQAETAAPDIYKTVGDEYDKKMESFN”, the “soluble fraction (log2)” value is reported as 0.11. With “HMNSQSGKGGVGYILETKYGLNLPPKMREAMGYAAKGVSDHLHKELHPDEIFDLFKKTFENVGQPYS” the “soluble fraction (log2)” value was -0.0272. With “HMSKIRSEINKFSSDADKPILEWLFERYHWASQWRFVARFSEQRYGVLSYEINRVWEPTIEGRALYDQL” the “soluble fraction (log2)” value was -2.34. With “HMNNLTEEAINHLVLEVKNVLLTDALFLGKATDSQLMLRIKETIDQRNGQYNIGMNDRERIARRVFARLR” the “soluble fraction (log2)” value was -0.189. For “HMAENTKKWDETGRRYRSYIKLEKRLSENTVESYMRDYMQFAHFILRQWDVAPHKVEPQMVERYMAWLYER”, the “soluble fraction (log2)” value was -0.00858. With “HMDIRMLLSDREEEIMILLSKGLSISEAANRMQIGQASAATYLNRARRKLKAETVRQAVAIWTGD” the “soluble fraction (log2)” value was -1.75. With “HMAQVSDTGELEGVVDGVLAANAKSVADFQAGKENAFQYLIGQVMKETKGKANPEVVATLLRTKLS” the “soluble fraction (log2)” value was -0.382. For “HMKGTVLAPGIILNADDQRFTYLQEDVASVAKDGAAIVLKQGDEVDFIADGQTAKQIYLTKT”, the “soluble fraction (log2)” value was 0.0649. In the case of “HMSENKIMEIVQDLAREKSVILISHRLANVTAADKILYMEQGKIAESGTHEQLMAQNKAYAALFNKQQEL”, the “soluble fraction (log2)” value is reported as -0.11. In the case of “HMSYTPGQWVEASMPNATFFRIVPSGNATADKMLAVATPMKVISTSGTYVKVELDSGDVGFVPEIMV”, the “soluble fraction (log2)” value is reported as -0.46. For “HMTTIFDNINGELRRRHLTQQDLAKTIEIDRRTWSKWQDKNDMPASVLLQIAKWLNVTLDYLTRD”, the “soluble fraction (log2)” value was -2.08. In the case of “HMASVRPVAPPDPKTHTRLTYRIRRGDTLERIGRRYRVSIAEIQAWNTLRDPGDILAGQRLVIWIPTS”, the “soluble fraction (log2)” value is reported as -2.3. With “HMENHILIIDDDLMLLKTAEEILSDQYNVSVAKSGIQALNLLNKNIIPDLILLDIDMPQMDGYETL” the “soluble fraction (log2)” value was -0.0279. In the case of “HMGFYDLFINLADKVGSLADVTQILAEARINLVNVHILEIREEIDGIAQLTFSSEKDRQKALELLKTKYK”, the “soluble fraction (log2)” value is reported as -1.33.

Reference: the domain aggregation screens of Martell et al. (2025)
